Source: PMC10944485, “Structure of full-length ERGIC-53 in complex with MCFD2 for cargo transport” (Nature Communications, 2024)
One block for each molecule: values may come before it.

What was measured:
[1] = target: ERGIC-53 ΔH34 mutant with a C-terminal FLAG (human) (UniProt P49257); assay: cryo-EM structure; ERGIC-53 ΔH34-MCFD2 complex, 1.7 mg/ml
[2] = target: T1, full-length human ERGIC-53 with a C-terminal PA tag (human, UniProt P49257 31-510); assay: SEC-MALS; Superdex 200 Increase 3.2/300; 20 mM Tris-HCl pH 7.5, 150 mM NaCl, 10 mM CaCl2, 0.02% GDN; samples 1.6-1.7 mg/ml; conjugate analysis (MALS-UV-RI); ERGIC-53 alone and its complex with MCFD2; conditions: both partners purified
T1 construct: ERGIC-53 (LMAN1), human, full length; cDNA subcloned from a HeLa cDNA library; Eluted from the beads with PA peptide; no step that removes the tag is described; Treated with 1 mM diamide before SEC; mixture of covalent (disulfide-linked) and noncovalent tetramers; The CRD is numbered from residue 31, so the signal peptide is probably cut off in the cells (surmised); also called LMAN1; P58
T1 sequence (looked up): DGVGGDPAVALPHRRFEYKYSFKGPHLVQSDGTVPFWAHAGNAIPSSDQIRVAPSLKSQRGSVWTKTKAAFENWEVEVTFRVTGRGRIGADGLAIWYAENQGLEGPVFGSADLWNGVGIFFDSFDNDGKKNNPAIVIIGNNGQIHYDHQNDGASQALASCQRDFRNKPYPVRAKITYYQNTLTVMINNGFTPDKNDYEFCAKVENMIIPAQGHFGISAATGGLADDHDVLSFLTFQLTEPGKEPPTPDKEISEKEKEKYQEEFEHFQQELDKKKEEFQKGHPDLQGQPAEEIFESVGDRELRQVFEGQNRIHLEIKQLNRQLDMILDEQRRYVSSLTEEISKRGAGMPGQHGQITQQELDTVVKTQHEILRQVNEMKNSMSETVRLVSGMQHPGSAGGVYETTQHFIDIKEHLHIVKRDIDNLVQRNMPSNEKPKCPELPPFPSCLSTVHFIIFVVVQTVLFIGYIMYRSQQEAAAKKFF

[3] = target: T2, full-length human ERGIC-53 with a C-terminal PA tag (human), P49257; assay: SEC-MALS; ERGIC-53 at weakly acidic Golgi pH (pH 6.5); conditions: remark: other sources report otherwise
T2 chain: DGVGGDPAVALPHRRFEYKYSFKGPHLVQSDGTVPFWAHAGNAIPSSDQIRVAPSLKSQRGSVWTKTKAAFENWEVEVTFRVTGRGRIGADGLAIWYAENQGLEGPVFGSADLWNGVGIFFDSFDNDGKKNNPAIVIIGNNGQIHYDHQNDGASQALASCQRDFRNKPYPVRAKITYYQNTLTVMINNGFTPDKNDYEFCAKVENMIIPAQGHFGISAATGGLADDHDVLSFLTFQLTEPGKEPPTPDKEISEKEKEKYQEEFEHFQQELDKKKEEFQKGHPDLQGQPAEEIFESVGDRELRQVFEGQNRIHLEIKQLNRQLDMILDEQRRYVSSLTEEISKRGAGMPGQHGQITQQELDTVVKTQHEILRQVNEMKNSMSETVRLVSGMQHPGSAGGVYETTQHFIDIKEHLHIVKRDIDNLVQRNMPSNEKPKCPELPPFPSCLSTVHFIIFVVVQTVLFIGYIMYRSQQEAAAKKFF

[4] = target: T2, full-length human ERGIC-53 with a …; assay: SEC-MALS; Superdex 200 Increase 3.2/300; 20 mM Tris-HCl pH 7.5, 150 mM NaCl, 10 mM CaCl2, 0.02% GDN; samples 1.6-1.7 mg/ml; conjugate analysis (MALS-UV-RI); ERGIC-53 alone and its complex with MCFD2; conditions: remark: other sources report otherwise
[5] = target: T2, full-length human ERGIC-53 with a …; assay: cryo-EM structure; full-length ERGIC-53 with MCFD2, 4-5 mg/ml in GDN with 3 mM fluorinated Fos-Choline-8; head region forms A and B, four substates, and full-length map; conditions: remark: other sources report otherwise

- stoichiometry N [1]: 4
Molecule: ERGIC-53 ΔH34 mutant with a C-terminal FLAG (from UniProt P49257 31-510) (receptor)

- stoichiometry N [2]: 1
B1: human MCFD2 lumen domain (residues 27-146) (domain or fragment, UniProt Q8NI22 27-146, looked up)
chain: EEPAASFSQPGSMGLDKNTVHDQEHIMEHLEGVINKPEAEMSPQELQLHYFKMHDYDGNNLLDGLELSTAITHVHKEEGSEQAPLMSEDELINIIDGVLRDDDKNNDGYIDYAEFAKSLQ
notes: MCFD2, human, lumen domain, residues 27-146, in pET15b; Thrombin cleavage of the pET15b His tag probably leaves a few vector residues at the N-terminus (surmised); also called multiple coagulation factor deficiency 2; source: E. coli BL21 (DE3), purified (Ni-NTA, MonoQ, thrombin cleavage, SEC); not shown: His tag, N-terminal, cleaved

- stoichiometry N [3]: 4
- stoichiometry N [4]: 4
- stoichiometry N [5]: 4
B2: full-length human ERGIC-53 with a C-terminal PA tag, P49257 31-510 (receptor)
chain: DGVGGDPAVALPHRRFEYKYSFKGPHLVQSDGTVPFWAHAGNAIPSSDQIRVAPSLKSQRGSVWTKTKAAFENWEVEVTFRVTGRGRIGADGLAIWYAENQGLEGPVFGSADLWNGVGIFFDSFDNDGKKNNPAIVIIGNNGQIHYDHQNDGASQALASCQRDFRNKPYPVRAKITYYQNTLTVMINNGFTPDKNDYEFCAKVENMIIPAQGHFGISAATGGLADDHDVLSFLTFQLTEPGKEPPTPDKEISEKEKEKYQEEFEHFQQELDKKKEEFQKGHPDLQGQPAEEIFESVGDRELRQVFEGQNRIHLEIKQLNRQLDMILDEQRRYVSSLTEEISKRGAGMPGQHGQITQQELDTVVKTQHEILRQVNEMKNSMSETVRLVSGMQHPGSAGGVYETTQHFIDIKEHLHIVKRDIDNLVQRNMPSNEKPKCPELPPFPSCLSTVHFIIFVVVQTVLFIGYIMYRSQQEAAAKKFF
